Measurements reported in US7947279B2, “Peptide having hydrolase activity” (The Trustees of Columbia University in the City of New York, priority 2005, dated 2011).
Entries after “also recorded” stand apart in the source; their conditions may differ.

How the values were obtained:
[1] = target: T1, Uch-L1 (Mus musculus, UniProt Q9R0P9); experiment: Hydrolase (ubiquitin-AMC) assay on hippocampi of injected mice; assay type: in vivo
T1 construct: hippocampal tissue was treated with tissue protein extraction reagent; from tissue; host or cells: mouse hippocampal slices (C57/BL6 or APP/PS1 and WT littermates)
T1 sequence (Q9R0P9 1-220): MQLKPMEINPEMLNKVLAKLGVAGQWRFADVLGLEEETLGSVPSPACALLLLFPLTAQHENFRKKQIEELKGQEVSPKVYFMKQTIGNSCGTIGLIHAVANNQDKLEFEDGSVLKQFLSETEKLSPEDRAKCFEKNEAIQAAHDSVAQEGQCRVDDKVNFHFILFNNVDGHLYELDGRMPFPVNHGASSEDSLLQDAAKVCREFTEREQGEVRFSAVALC
Method: (§1) Measurement of Hydrolase Activity: The hydrolase assay was performed as previously described (Nishikawa et al., 2003) with slight modifications. Briefly, hippocampal tissue was treated with tissue protein extraction reagent (T-PER; Pierce) containing freshly added EDTA-free protease inhibitors. Homogenate was centrifuged at 10,000 rpm for 5 min. Protein concentration was measured in the supernatant using the BCA protein assay reagent. In some experiments hydrolysis was initiated by adding 10 μl of 20 nM Uch-L1 or Uch-L3 (Boston Biochem). The hydrolase assay was performed using fluorogenic ubiquitin-7-amino-4-methylcoumarin (ubiquitin-AMC) (Boston Biochem) as a substrate. The substrate was diluted in assay buffer (50 mM Tris-HCL, 0.5 mM EDTA, 5 mM dithiothreitol and 0.1 mg/ml ovalbumin, pH 7.6). Each reaction mixture containing 400 nM substrate and 100 μg enzyme sample was incubated for 5 min at room temperature. The reaction was monitored using a fluorescence spectrophotometer (CytoFluor Series 4000, ABI Inc) at 25° C. The free AMC fluorophore was excited at 380 nm and measured at 460 nm. Hydrolase activity was expressed as relative fluorescence intensity/min (Dang et al., 1998). In some experiments, hydrolysis was also measured on the soluble and insoluble fractions (FIG. 28D). In a group of experiments hydrolysis was measured by mixing ubiquitin-AMC with 20 nM TAT fusion proteins (FIG. 27C). In other experiments the substrate was Nedd8-AMC (Boston Biochem). LDN-57444 was purchased from Calbiochem.

[2] = target: T1, Uch-L1; experiment: Hydrolase (ubiquitin-AMC) assay on hippocampal slices; assay type: cell-based
Method: (§2) Slice preparation. Mice were decapitated and their hippocampi removed. […] Slices were permitted to recover from cutting for at least 90 min. before recordings. For experiments with lactacystin, slices were perfused with the drug or vehicle for 2 to 4 hrs in a small volume (10 ml) chamber.
as §1, with “Briefly,” for “Measurement of Hydrolase Activity: The hydrolase assay was performed as previously described (Nishikawa et al., 2003) with slight modifications. Briefly,”, “Hydrolase activity was expressed as relative fluorescence intensity/min (Dang et al., 1998).” left out, “Biochem).” for “Biochem). LDN-57444 was purchased from Calbiochem.”

[3] = system: phospho-CREB; experiment: Phospho-CREB immunofluorescence in hippocampal slices; assay type: cell-based, mouse
[4] = system: Uch-L1; experiment: Hydrolase (ubiquitin-AMC) assay on hippocampi of injected mice; assay type: in vivo, mouse; conditions: 0.02-0.04 g/kg, i.p.
Method: as §1

[5] = system: monoubiquitin; experiment: Monoubiquitin levels (quantitative Western blot); assay type: cell-based, mouse
Method: Western Blotting: Protein levels were assessed using standard procedures. Protein extraction was performed using buffer with and without detergent. For the extraction of protein using detergent, hippocampal tissues and cultured hippocampal neurons (5 DIV) were homogenized in RIPA buffer (50 mM Tris-HCl pH 7.4, 1% Triton X-100, 1% sodium deoxycholate, 0.1% SDS, 150 mM sodium chloride, 10 mM sodium fluoride, 30 mM sodium pyrophosphate, 50 mM sodium orthovanadate) containing 1× complete protease inhibitor (Roche) and 1 mM phenylmethylsulfonyl fluoride (PMSF). For extraction of proteins without detergent, hippocampal extracts were homogenized with disposable dounce homogenizers in buffer A, containing 10 mM HEPES pH 7.3, 300 mM sucrose, protease 1× complete protease inhibitor (Roche) and PMSF. After centrifugation at 10,000×g supernatant proteins were resolved on a 8% or 4-20% gradient Tris-Glycine gel, transferred onto PVDF or nitrocellulose membrane and blocked in 5% skim milk in PBS-Tween 0.1% (PBS-T). Membranes were probed with primary antibodies, and after washing with PBS-T incubated with an appropriate HRP-conjugated secondary antibody. The following antibodies were used: mouse monoclonal anti-ubiquitin (Chemicon), rabbit polyclonal anti-pCREB (Upstate Biotech.), rabbit polyclonal anti-PKA-RIIα (Santa Cruz Biotech. Inc), mouse monoclonal anti-Uch-L1 (Novocastra), monoclonal mouse anti-HA (Santa Cruz Biotech. Inc), and anti-PKA IIα. Detection was performed using HRP-conjugated secondary antibodies (Pierce, Rockford, Ill.). To control loading and transfer, protein immunoreactivities were normalized against total extracellular signal-regulated protein kinases (ERK1/2) levels with a rabbit analyzed using a rabbit polyclonal anti-ERK1/2 antibody (Cell Signaling Technology, Inc). NIH IMAGE was used to analyze the scanned blots and quantify the intensity of the protein signals.

[6] = system: Uch-L1; experiment: Hydrolase (ubiquitin-AMC) assay on hippocampal slices; assay type: cell-based, mouse
Method: as §2
as §1, with “Briefly,” for “Measurement of Hydrolase Activity: The hydrolase assay was performed as previously described (Nishikawa et al., 2003) with slight modifications. Briefly,”, “Hydrolase activity was expressed as relative fluorescence intensity/min (Dang et al., 1998).” left out, “Biochem).” for “Biochem). LDN-57444 was purchased from Calbiochem.”

[7] = 0.4 mg/kg, sacrificed 4 hrs after injection

Molecule: CC(=O)O/N=C1\C(=O)N(Cc2cc(Cl)ccc2Cl)c2ccc(Cl)cc21 [LDN-57444, reference compound]
- Ubiquitin-C-Terminal hydrolase activity in hippocampi [1, 7]: decreased
- Uch-L1 activity [1, 7]: 65 % of vehicle injected controls
- recovery of hydrolase activity ([1]; single i.p. injection 0.4 mg/kg): ≤ 8 h
- maximal inhibition of hydrolase activity ([1]; single i.p. injection 0.4 mg/kg, 30 minutes post-injection): ~40 % of control
- reduction of enzymatic activity ([2]; 1 μM LDN): 20%
- reduction of enzymatic activity ([2]; 2.7 μM LDN, 2-4 hour perfusion): ~40%
- inhibition of enzymatic activity ([2]; 5 μM LDN, 15 minute perfusion): 20%
- reduction of activity ([2]; 5 μM LDN, 2 hour exposure): 70%
- Maximal inhibition of Uch activity ([2]; 5 μM LDN, one hour (60 min)): 70%
- Uch activity in APP/PS1 slices ([2]; 5 μM for 2 hrs): further reduced Uch activity
- Ubiquitin-C-Terminal hydrolase activity ([2]; 5 μM for 4 hrs): decreased
- Uch-L1 hydrolase activity ([2]; LDN-57444 perfusion (5 μM, 4 hrs)): less than 30 % of vehicle-treated controls
- enzymatic activity ([2]; WT and APP/PS1 slices, 5 μM LDN, 2 hours): ~70 % of values in vehicle treated WT slices

B1: TAT-HA-Uch-L1: fusion protein: 11-amino acid transduction domain of HIV-transactivator protein (TAT) fused with an HA tag and human Uch-L1 (protein)
chain: MQLKPMEINPEMLNKVLSRLGVAGQWRFVDVLGLEEESLGSVPAPACALLLLFPLTAQHENFRKKQIEELKGQEVSPKVYFMKQTIGNSCGTIGLIHAVANNQDKLGFEDGSVLKQFLSETEKMSPEDRAKCFEKNEAIQAAHDAVAQEGQCRVDDKVNFHFILFNNVDGHLYELDGRMPFPVNHGASSEDTLLKDAAKVCREFTEREQGEVRFSAVALCKAA
modifications: left off: small tags and cut ends
- tetanus-induced increase in phospho-CREB in Aβ-treated slices ([3]; fusion protein 20 nM 1 hr, then 200 nM Aβ plus fusion protein 20 min): significant protection against Aβ42 effects on phospho-CREB; also recorded: reversed; also recorded: re-established the tetanus-induced increase in CREB phosphorylation; also recorded: re-established the tetanus-induced increase in phospho-CREB
- tetanus-induced increase in phospho-CREB (words) ([3]; fusion protein alone): did not affect the increase; also recorded: had no effect
- phospho-CREB immunofluorescence without theta-burst ([3]; no tetanus): did not modify immunofluorescence; also recorded: neither Aβ42 alone nor TAT-HA-Uch-L1 alone nor TAT-HA-Uch-L1 paired with Aβ42 induced changes
- total Uch activity in APP/PS1 mice [4]: returned to control levels; also recorded: re-established normal total Uch activity
- total Uch activity in WT mice [4]: increased above control level; also recorded: increased total Uch activity
- mono-ubiquitin levels ([5]; 20 nM fusion protein 1 hour, then 200 nM oligomeric Aβ plus fusion protein 20 min): 90.25±17.25 % of control
- monoubiquitin levels ([5]; fusion protein 20 nM 1 hr pre-incubation plus Aβ): normal monoubiquitin levels; also recorded: blocks the decrease of monoubiquitin levels
- monoubiquitin levels ([5]; fusion protein 20 nM 1 hr pre-incubation plus Aβ, listed as TAT-A-Uch-L1 peptide): annulled the decrease
- monoubiquitin levels ([5]; fusion protein 20 nM 1 hr pre-incubation plus Aβ, listed as TAT-Uch-L1 fusion protein): re-establishes normal mono-ubiquitin levels
- mono-ubiquitin levels ([5]; fusion protein alone): 121.03±14.69 % of control
- monoubiquitin levels ([5]; substance alone): slight increase
- Uch activity ([6]; 20 nM fusion protein 1 hr pre-incubation, 200 nM Aβ 20 min): normal monoubiquitin levels and Uch activity are maintained; also recorded: re-established normal ubiquitin-C-terminal hydrolase activity; also recorded: re-established normal Uch activity
- ubiquitin-c-terminal hydrolase enzymatic activity ([6]; 20 nM fusion protein 1 hr, then 200 nM Aβ plus fusion protein): 98.40±5.76 % of TAT-HA treated WT slices
- enzymatic (Uch) activity ([6]; fusion protein alone): slight increase
- enzymatic activity ([6]; fusion protein alone for 1 hr): 148.63±12.01 % of TAT-HA treated slices
- Uch activity ([6]; slices from 4 month APP/PS1 mice, 20 nM for 1 hr): Uch activity is restored
